Data from doi:10.1101/432989 (bioRxiv, 2018).
Substitutions are numbered along the chain they refer to. Names may count otherwise.

B1: MazE-mt1 (natural protein)
chain: MKLSVSLSDDDVAILDAYVKRAGLPSRSAGLQHAIRVLRYPTLEDDYANAWQEWSAAGDTDAWEQTVGDGVGDAPR
B2: MazE-mt1 D69A mutant (natural protein)
chain: B1 chain with D69A
B3: MazE-mt9 (natural protein)
chain: MSTSTTIRVSTQTRDRLAAQARERGISMSALLTELAAQAERQAIFRAEREASHAETTTQAVRDEDREWEGTVGDGLG
B4: MazE-mt9 D74A mutant (natural protein)
chain: B3 chain with D74A
B5: MazE-mt9 R46A-E48A-D74A triple mutant (natural protein)
chain: B3 chain with R46A, E48A, D74A

Columns and labels:
[1] = biological target: MazF-mt9 (Mycobacterium tuberculosis); assay: ITC
crystal structure = biological target: the molecule itself; assay: crystal structure

| Binder | Kd [1] [nM] | fold increase of KD against WT MazE-mt9 [1] [fold] | other results |
| --- | --- | --- | --- |
| B1 | 59.3 | – | – |
| B2 | – | – | fold weakening of affinity against WT MazE-mt1 [1]: 5.3 fold |
| B3 | 17.5 | – | binding result (crystal structure): binds |
| B4 | – | 2 | – |
| B5 | – | 8 | – |
